Experimental data: publication PMC8882607 (Journal of Molecular Biology, 2022)

Key:
Test in all cases: ITC
G3BP1_(NTF2) V11A mutant = G3BP1_(NTF2) V11A mutant (human, UniProt Q13283 1-139, V11A)
[1] = biological target: G3BP1_(NTF2) F124A mutant (human, UniProt Q13283 1-139, F124A)
G3BP1_(NTF2) Q18A mutant = G3BP1_(NTF2) Q18A mutant (human, UniProt Q13283 1-139, Q18A)
G3BP1_(NTF2) F33A mutant = G3BP1_(NTF2) F33A mutant (human, UniProt Q13283 1-139, F33A)
[2] = biological target: NTF2-like domain of human G3BP1 (residues 1-139) (human, UniProt Q13283 1-139)
Chain of NTF2-like domain of human G3BP1 (residues 1-139) (Q13283 1-139): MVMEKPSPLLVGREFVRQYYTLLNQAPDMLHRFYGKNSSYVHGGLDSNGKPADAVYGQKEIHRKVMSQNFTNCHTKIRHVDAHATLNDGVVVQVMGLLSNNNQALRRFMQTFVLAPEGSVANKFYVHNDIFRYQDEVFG

Chain of G3BP1_(NTF2) F124A mutant (Q13283 1-139 F124A): as the sequence (Q13283 1-139) above, with F124A counted along it
Chain of G3BP1_(NTF2) V11A mutant (Q13283 1-139 V11A): as the sequence (Q13283 1-139) above, with V11A counted along it
Chain of G3BP1_(NTF2) Q18A mutant (Q13283 1-139 Q18A): as the sequence (Q13283 1-139) above, with Q18A counted along it
Chain of G3BP1_(NTF2) F33A mutant (Q13283 1-139 F33A): as the sequence (Q13283 1-139) above, with F33A counted along it

MSDNGPQNQRNAPRITFGGPSDSTG [SARS-CoV-2 N_(1–25) peptide (residues 1-25 of the N protein)]
fold reduction of binding against wild-type G3BP1_(NTF2) (G3BP1_(NTF2) V11A mutant): ~10 fold
fold reduction of binding against wild-type G3BP1_(NTF2) [1]: ~20 fold
dH (G3BP1_(NTF2) Q18A mutant): -15.1 kcal/mol
dH (G3BP1_(NTF2) F33A mutant): -21.3 kcal/mol

MSDNGPQNQRNAPRATFGGPSDSTG [SARS-CoV-2 N_(1–25) peptide, I15A mutant]
fold reduction of binding against wild-type N_(1–25) [2]: > 10 fold

MSDNGPQNQRNAPRITFTGPSDSTG [SARS-CoV-2 N_(1–25) peptide, G18T mutant]
fold reduction of binding affinity against wild-type N_(1–25) [2]: ~6 fold

MSDNGPQNQRNAPRIAFGGPSDSTG [SARS-CoV-2 N_(1–25) peptide, T16A mutant]
fold reduction of binding against wild-type N_(1–25) [2]: ~3 fold
